Test results: article PMC7225076
Read-outs that look alike come from different tables or passages of the source.

B1: GQI (GQ1) intramolecular RNA G-quadruplex (structured_RNA)
RNA: UUAGGGGGAGGGGGAUGGGGGAGGGGGAAAAAAAAAAAAAAA
B2: RNA duplex R16/R31 (dsRNA)
RNA 1: AGCACCGUAAAGACGC
RNA 2: GCGUCUUUACGGUGCUAAAAAAAAAAAAAAA

Key:
Assay in all cases: EMSA
mDHX36 delta-OB-fold = biological target: T1, mDHX36 delta-OB-fold (Mus musculus, UniProt B2RQS6 46-834+895-981, internal_change)
T1 sequence: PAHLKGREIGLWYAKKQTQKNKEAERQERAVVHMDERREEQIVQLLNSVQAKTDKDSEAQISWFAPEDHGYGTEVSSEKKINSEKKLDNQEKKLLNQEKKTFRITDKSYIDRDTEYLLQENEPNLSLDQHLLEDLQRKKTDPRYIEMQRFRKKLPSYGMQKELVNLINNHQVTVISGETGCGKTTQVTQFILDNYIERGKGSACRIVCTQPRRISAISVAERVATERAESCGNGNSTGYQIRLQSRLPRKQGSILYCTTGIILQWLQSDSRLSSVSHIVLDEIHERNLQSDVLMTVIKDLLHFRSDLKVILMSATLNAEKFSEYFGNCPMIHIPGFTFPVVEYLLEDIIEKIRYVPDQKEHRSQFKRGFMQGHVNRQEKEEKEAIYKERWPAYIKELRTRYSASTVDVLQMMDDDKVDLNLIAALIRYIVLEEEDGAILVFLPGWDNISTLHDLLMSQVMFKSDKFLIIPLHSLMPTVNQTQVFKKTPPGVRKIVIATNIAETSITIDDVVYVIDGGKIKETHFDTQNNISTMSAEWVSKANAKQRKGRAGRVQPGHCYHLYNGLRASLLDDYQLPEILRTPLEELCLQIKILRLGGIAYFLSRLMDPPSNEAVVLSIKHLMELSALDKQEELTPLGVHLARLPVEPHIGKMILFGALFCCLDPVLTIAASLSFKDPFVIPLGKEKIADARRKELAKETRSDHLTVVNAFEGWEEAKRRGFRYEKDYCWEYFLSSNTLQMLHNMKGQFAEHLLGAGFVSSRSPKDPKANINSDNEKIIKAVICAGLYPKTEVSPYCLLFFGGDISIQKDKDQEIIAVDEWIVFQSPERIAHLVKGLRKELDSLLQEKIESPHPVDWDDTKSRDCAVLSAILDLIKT

WT mDHX36 (46-982) [1] = biological target: T2, WT mDHX36 (46-982) (Mus musculus, UniProt B2RQS6 46-982)
T2 sequence: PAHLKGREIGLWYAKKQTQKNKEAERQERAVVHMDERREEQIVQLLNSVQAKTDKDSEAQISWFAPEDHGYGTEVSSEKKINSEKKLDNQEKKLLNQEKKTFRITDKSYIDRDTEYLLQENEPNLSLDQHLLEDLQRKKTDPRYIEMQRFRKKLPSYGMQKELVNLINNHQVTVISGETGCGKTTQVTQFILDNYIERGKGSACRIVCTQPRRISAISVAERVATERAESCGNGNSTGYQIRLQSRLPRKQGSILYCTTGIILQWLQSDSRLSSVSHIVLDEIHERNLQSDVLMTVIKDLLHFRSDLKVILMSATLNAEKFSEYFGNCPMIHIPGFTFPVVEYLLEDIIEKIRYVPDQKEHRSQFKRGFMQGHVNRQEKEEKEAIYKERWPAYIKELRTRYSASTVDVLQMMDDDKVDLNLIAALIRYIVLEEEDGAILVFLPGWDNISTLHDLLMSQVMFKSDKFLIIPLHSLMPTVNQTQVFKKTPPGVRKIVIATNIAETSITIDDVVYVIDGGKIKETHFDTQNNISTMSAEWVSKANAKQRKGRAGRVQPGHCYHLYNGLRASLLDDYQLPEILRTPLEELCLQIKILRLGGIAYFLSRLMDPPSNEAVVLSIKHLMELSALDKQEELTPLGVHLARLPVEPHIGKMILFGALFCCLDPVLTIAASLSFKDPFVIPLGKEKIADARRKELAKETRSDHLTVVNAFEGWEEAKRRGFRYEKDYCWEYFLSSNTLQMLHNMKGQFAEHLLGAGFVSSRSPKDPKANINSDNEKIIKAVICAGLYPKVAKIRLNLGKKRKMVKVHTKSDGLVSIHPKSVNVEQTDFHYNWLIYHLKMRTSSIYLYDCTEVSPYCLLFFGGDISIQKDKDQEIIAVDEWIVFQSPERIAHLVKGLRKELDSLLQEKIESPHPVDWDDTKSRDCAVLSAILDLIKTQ

WT mDHX36 (46-982) [2] = biological target: T2, WT mDHX36 (46-982); remark: listed apart in the source

Binder	apparent K (half saturation) (mDHX36 delta-OB-fold) [nM]	binding result (WT mDHX36 (46-982) [1])	binding result (WT mDHX36 (46-982) [2])
B1	~50	binds	
B2			binds
